Positions count from the first letter of the chain named. Values belong to the binder of their own block, whether it stands above or below them.
Molecular target: T1, human Proprotein Convertase Subtilisin-like/Kexin type 9 (human, UniProt Q8NBP7 31-692, limits assumed)
T1 construct: Biotinylated in the ELISAs; unlabelled analyte in BLI and SPR; also called human PCSK9; PCSK9
Test: BLI (Octet QK), biotinylated antibody on streptavidin sensors, human PCSK9 in solution, 1:1 fit
Protocol: Binding affinities of monoclonal antibodies for PCSK9 were estimated using Bio-Layer Interferometry (BLI) on the Octet QK (ForteBio). Biotinylated antibody was immobilized at different densities to the surface of Streptavidin (SA) Biosensors. A dilution series of human PCSK9 prepared in 1× Kinetics Buffer (NaCl 0.0138 M; KCl 0.00027 M; 0.1 mg/mL BSA, 0.002% Tween and 0.005% Sodium Azide; pH 7.4, at 25° C.) purchased from the manufacturer (ForteBio) was used to query the antibodies. At our chosen concentrations of antigen (˜0.25 μg/mL-2 μg/mL) association times of 15 minutes and dissociation times of 25 minutes were used with the Octet Analysis Software (v6.4, ForteBio), to globally fit data using a 1:1 Langmuir binding model.

T1 sequence (Q8NBP7 31-692 limits assumed): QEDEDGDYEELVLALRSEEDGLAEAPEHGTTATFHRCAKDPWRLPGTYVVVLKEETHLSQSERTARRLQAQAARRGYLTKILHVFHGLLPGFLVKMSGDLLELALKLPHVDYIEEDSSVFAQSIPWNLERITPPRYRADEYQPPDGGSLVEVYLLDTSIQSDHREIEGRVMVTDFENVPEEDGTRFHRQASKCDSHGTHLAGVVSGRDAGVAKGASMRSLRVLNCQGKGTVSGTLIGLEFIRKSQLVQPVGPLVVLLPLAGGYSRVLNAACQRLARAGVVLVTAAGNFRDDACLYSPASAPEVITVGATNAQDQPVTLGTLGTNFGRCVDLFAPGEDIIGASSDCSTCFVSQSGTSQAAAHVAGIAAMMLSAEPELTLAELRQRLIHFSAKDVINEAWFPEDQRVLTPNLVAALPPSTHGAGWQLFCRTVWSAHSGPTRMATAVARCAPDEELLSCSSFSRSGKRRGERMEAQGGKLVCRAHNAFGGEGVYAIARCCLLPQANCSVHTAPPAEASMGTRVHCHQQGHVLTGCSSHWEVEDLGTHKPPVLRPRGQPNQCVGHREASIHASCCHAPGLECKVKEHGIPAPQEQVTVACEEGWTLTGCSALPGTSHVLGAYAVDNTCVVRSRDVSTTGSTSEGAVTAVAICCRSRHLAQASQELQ

B1: Ab8 (antibody, human IgG1, kappa, N297A, V domains shown)
VH: QEQLVESGGGLVQPEGSLTLTCTASGFSFTSDYYMCWVRQAPGKGLEWIGCISTGDGSTYYASWAKGRFTISKPSSTTVTLQMTRLTAADTATYFCARDRYYSYAYGAYVYASDLWGPGTLVTVSS
VL: DIVMTQTPASVSEPVGGTVTINCQASESIRNYLSWYQQKPGQRPKLLIYGASTLASGVPSRFKGSGSGTDFTLTISDLECADAATYYCQSNYGISSRSYVNGFGGGTEVVVKR
notes: also called antibody Ab8
Kd: 637 pM | koff: 4.91e-05 s⁻¹ | kon: 77000 M⁻¹ s⁻¹

B2: Ab7 (antibody, human IgG1, kappa, N297A)
heavy: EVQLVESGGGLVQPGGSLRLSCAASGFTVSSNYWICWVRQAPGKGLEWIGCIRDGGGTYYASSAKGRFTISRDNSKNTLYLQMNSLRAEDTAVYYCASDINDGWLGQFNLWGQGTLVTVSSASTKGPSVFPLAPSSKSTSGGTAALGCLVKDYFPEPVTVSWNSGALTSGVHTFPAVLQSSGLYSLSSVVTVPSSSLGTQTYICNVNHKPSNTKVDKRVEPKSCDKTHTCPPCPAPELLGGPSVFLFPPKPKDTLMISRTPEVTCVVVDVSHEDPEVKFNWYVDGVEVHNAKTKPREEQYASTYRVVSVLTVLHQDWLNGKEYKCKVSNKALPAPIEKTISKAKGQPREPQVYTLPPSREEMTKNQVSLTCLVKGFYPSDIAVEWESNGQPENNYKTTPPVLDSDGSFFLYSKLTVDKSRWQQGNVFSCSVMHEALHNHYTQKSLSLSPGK
light: ADIVMTQSPSSLSASVGDRVTIKCQASQSISAYLAWYQQKPGKVPKLLIYRAYTLASGVPSRFSGSGSGTDFTLTISSLQPEDVATYYCQSYYSVTTNTYGNTFGGGTKVEIKRTVAAPSVFIFPPSDEQLKSGTASVVCLLNNFYPREAKVQWKVDNALQSGNSQESVTEQDSKDSTYSLSSTLTLSKADYEKHKVYACEVTHQGLSSPVTKSFNRGEC
notes: also called antibody Ab7
Kd: 379 pM | koff: 2.68e-05 s⁻¹ | kon: 70700 M⁻¹ s⁻¹

B4: Ab11 (antibody, human IgG1, kappa, N297A)
heavy: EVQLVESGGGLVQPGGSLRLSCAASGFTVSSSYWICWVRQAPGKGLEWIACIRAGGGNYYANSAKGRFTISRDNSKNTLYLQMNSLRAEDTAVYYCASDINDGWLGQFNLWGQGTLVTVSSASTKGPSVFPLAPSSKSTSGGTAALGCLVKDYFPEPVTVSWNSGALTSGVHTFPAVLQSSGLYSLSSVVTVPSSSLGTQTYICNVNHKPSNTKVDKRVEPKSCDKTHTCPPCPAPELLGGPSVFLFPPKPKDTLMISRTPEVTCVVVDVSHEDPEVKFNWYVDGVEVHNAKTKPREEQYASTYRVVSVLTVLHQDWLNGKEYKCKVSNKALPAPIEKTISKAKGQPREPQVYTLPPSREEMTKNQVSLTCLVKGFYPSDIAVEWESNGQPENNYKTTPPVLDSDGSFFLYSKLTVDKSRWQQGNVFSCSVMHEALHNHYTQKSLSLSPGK
light: B2 light with D2N, K23T, A32N, A52T, Y53S, N98V, T99A
notes: also called antibody Ab11
Kd: 332 pM | koff: 2.22e-05 s⁻¹ | kon: 66800 M⁻¹ s⁻¹

B5: Ab12 (antibody, human IgG1, kappa, N297A)
heavy: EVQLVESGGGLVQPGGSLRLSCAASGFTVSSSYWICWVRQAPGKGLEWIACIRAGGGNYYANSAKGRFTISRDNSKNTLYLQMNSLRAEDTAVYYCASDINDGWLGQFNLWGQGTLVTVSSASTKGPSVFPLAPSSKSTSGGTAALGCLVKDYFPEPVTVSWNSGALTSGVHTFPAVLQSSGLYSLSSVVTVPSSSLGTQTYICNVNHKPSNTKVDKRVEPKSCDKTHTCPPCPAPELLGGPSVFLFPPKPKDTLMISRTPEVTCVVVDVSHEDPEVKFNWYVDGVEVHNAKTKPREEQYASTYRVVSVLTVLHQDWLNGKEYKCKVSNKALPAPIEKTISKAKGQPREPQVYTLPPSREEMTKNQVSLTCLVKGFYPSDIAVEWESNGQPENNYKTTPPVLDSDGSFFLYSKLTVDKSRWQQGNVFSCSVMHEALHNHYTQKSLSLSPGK
light: B2 light with D2N, A32N, A52T, Y53S, N98V, T99A
notes: also called antibody Ab12
Kd: 120 pM | koff: 1.21e-05 s⁻¹ | kon: 100000 M⁻¹ s⁻¹

B6: Ab2 (antibody, human IgG1, kappa, N297A, V domains shown)
VH: QSVEESGGRLVTPGTPLTLTCTVSGFSLSSYAMSWVRQAPGKGLEWIGIIDAIDNTYYASWAKGRFTISKTSTTVDLKMTSLTTGDTATYFCARASILGYSIATGFNIWGPGTLVTVSS
VL: AYDMTQTPASVEVAVGGTVTIKCQASQSISSHLAWYQQKSGQPPKLLIYRASTLESGVSSRFKGSGSGTEFTLTISDLECADAATYYCQQGYGVSDVDNGFGGGTEVVVKR
notes: also called antibody Ab2
Kd: 4250 pM | koff: 0.000453 s⁻¹ | kon: 107000 M⁻¹ s⁻¹

B7: Ab5 (antibody, human IgG1, kappa, N297A, V domains shown)
VH: QSVEESGGRLVTPGTPLTLTCTVSGFSLSSYAMSWVRQAPGKGLEWIGIISNSGTTYYASWAKGRFTISKTSTTVDLKITSPTTEDTATYFCARGIYWYWRVFNLWGPGTLVTVSS
VL: AVLTQTPSPVSAAVGGTVTINCQASQSVYNNLLSWYQQKPGQPPKLLIYDASNLASGVPDRFSGSGSGTQFTLTISGVQCDDAATYYCLGGYDDDADNAFGGGTEVVVKR
notes: also called antibody Ab5
Kd: 3160 pM | koff: 0.000278 s⁻¹ | kon: 88100 M⁻¹ s⁻¹

B9: Ab1 (antibody, human IgG1, kappa, N297A, V domains shown)
VH: QSVEESGGRLVTPGTPLTLTCTVSGFSLSSYWMTWVRQAPGKGLEYIGIISSSGSTYYATWAKGRFTISKTSSTTVDLEITSPTTEDTATYFCARDSAFSSGLEFNIWGPGTLVTVSS
VL: AYDLTQTPASVEVAVGGTVTIKCQASQSVYSNWLSWYQQKPGQPPKLLIYDASDLASGVPSRFKGSGSGTQFTLTISGVQCDDAATYYCQQGQSSSDIDNTFGGGTEVVVKR
notes: also called antibody Ab1
Kd: 7990 pM | koff: 0.0013 s⁻¹ | kon: 162000 M⁻¹ s⁻¹

B10: Ab19 (antibody, human IgG1, kappa, N297A, V domains shown)
VH: EVQLVESGGGLVQPGGSLRLSCAASGIDLSSYAMGWVRQAPGKGLEYIGIIVSYGPTYYASWAKGRFTISRDNSKNTVYLQMNSLRAEDTATYFCARDLDAQSSGYYGAFNIWGQGTLVTVSS
VL: DIQMTQSPSTLSASVGDRVTITCQASQSISTALAWYQQKPGKAPKLLIYAASPLASGVPSRFSGSGSGTEFTLTISSLQPDDFATYYCQSYYGSSNIAFGGGTKVEIKR
notes: also called antibody Ab19
Kd: 1300 pM | koff: 0.000116 s⁻¹ | kon: 88000 M⁻¹ s⁻¹

B12: Ab4 (antibody, human IgG1, kappa, N297A, V domains shown)
VH: QSVEESGGRLVTPGTPLTLTCTVSGIDLSSYAMIWVRQAPEKGLEYIGYIGGIDSTYYASWAKGRFTISKTSTTVDLKMTSPTTEDTATYFCGRWSGTSGYNTIWGPGTLVTVSS
VL: DVVMTQTPASVEAAVGGTVTIKCQASQSIYSNLAWYQQKPGQPPKLLIYGASNLASGVSSRFKGSRSGTEYTLTISDLECADAATYYCQCTGGGDSGNTFGGGTEVVVKR
notes: also called antibody Ab4
Kd: 6000 pM | koff: 0.000422 s⁻¹ | kon: 70300 M⁻¹ s⁻¹

B13: Ab6 (antibody, human IgG1, kappa, N297A, V domains shown)
VH: QEQLEESGGDLVKPEGSLTLTCTASGFSFSSNYWICWVRQAPGKGLEWIGCIRDGGGTYYASWAKGRLTISMTSSTTVTLQLNSLTAADTATYFCASDINDGWLGQFNLWGPGTLVTVSS
VL: DIVMTQTPASVEVAVGGTVTIKCQASQSISAYLAWYQQKPGQPPKLLIYRAYTLASGVPSRFKGSGSGTQFTLTISDLECADAATYYCQSYYSVTTNTYGNTFGGGTEVVVKR
notes: also called antibody Ab6
Kd: 531 pM | koff: 4e-05 s⁻¹ | kon: 75300 M⁻¹ s⁻¹

B15: Ab10 (antibody, human IgG1, kappa, N297A, V domains shown)
VH: B13 VH with N32S, G50A, D54A, T58N, S62N, L68F, M72R, L82M, N83T
VL: B13 VL with D1N, V13A, A31N, A51T, Y52S, N97V, T98A
notes: also called antibody Ab10
Kd: 676 pM | koff: 5.09e-05 s⁻¹ | kon: 75300 M⁻¹ s⁻¹

B18: Ab13 (antibody, human IgG1, kappa, N297A, V domains shown)
VH: QSVEESGGRLVTPGTPLTLTCTVSGIDLSTYGVGWVRQAPGKGLEYIGIISSSGSTYYASWAKGRFTISKTSSTTVDLKMTSLTTEDTATYFCARDWSSTTGYYGYFNMWGPGTLVTVSS
VL: AFELTQTPSPVSAAVGGTVTIKCQASQSISTALAWYQQKPGQPPKLLIYGASNLESGVPSRFSGSGSGTQFTLTISDLECADAAIYYCQSSYGSSTLAFGGGTEVVVKR
notes: also called antibody Ab13
Kd: 2230 pM | koff: 0.000353 s⁻¹ | kon: 159000 M⁻¹ s⁻¹

B19: Ab3 (antibody, human IgG1, kappa, N297A, V domains shown)
VH: QSVEESGGRLVTPGGSLTLTCTASGFSLSSYYMSWVRQAPGKGLEWIGIIYPSGSTYYASWAKGRFTISKTSTTVDLKITSPTVEDTATYFCARGGAYATLNLWGPGTLVTVSS
VL: AVLTQTPSPVSAAVGGTVTISCQSSQSVYHNNLLSWYQQKPGQPPKLLIYDASKLTSGVSSRFSGSGSGTQFTLTISGVQCDDAATYYCLGGYDDDADNGFGGGTEVVVKR
notes: also called antibody Ab3
Kd: 5870 pM | koff: 0.000554 s⁻¹ | kon: 94400 M⁻¹ s⁻¹

B20: Ab9 (antibody, human IgG1, kappa, N297A, V domains shown)
VH: QSVEESGGRLVTPGTPLTLTCTVSGIDLSSYAMGWVRQAPGKGLEYIGIIVSYGPTYYASWAKGRFTISKTSTTVDLKITSPTAEDTATYFCARDLDANSSGYYGCFNIWGQGTLVTVSS
VL: AVVLTQTPASVSAAVGGTVTIKCQASQSISTALAWYQQKPGQPPKLLIYAASPLASGVSSRFKSSGSGTEFTLTISDLECADAATYYCQSYYGSSNIAFGGGTELEILR
notes: also called antibody Ab9
Kd: 637 pM | koff: 4.91e-05 s⁻¹ | kon: 77000 M⁻¹ s⁻¹

Next, values leading:

Kd: 215 pM | koff: 2.09e-05 s⁻¹ | kon: 97000 M⁻¹ s⁻¹
B3: Ab18 (antibody, human IgG1, kappa, N297A)
heavy: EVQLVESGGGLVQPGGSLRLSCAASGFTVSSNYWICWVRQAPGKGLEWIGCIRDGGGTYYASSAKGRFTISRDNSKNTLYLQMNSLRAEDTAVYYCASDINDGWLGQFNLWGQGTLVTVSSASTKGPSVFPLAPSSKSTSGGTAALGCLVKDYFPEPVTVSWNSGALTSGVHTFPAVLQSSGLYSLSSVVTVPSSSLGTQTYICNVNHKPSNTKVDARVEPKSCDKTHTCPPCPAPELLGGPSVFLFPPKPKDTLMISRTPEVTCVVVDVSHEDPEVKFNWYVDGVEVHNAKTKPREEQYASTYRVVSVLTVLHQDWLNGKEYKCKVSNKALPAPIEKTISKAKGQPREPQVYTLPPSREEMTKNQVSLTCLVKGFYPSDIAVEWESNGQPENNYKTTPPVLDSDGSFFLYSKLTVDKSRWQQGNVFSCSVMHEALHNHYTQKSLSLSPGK
light: B2 light
notes: also called antibody Ab18

Kd: 839 pM | koff: 5.8e-05 s⁻¹ | kon: 69200 M⁻¹ s⁻¹
B8: Ab15 (antibody, human IgG1, kappa, N297A, V domains shown)
VH: QEQLEESGGDLVKPEGSLTLTCTASGFSFSSSYWICWVRQAPGKGLEWIACIDAGNSGSTYYASWAKGRFTISKASSTTVTLQMTSLTAADTATYFCASDLNDGWLGQFNLWGPGTLVTVSS
VL: NIVMTQTPSPVSGAVGGTVTIKCQASQSISDYLAWYQQKPGQPPKLLIYRASTLASGVPSRFRGSGSGTEYTLTITDLECADAATYYCQSYYSVTTNTYGNTFGGGTEVVVKR
notes: also called antibody Ab15

Kd: 600 pM | koff: 6.63e-05 s⁻¹ | kon: 108000 M⁻¹ s⁻¹
B11: Ab20 (antibody, human IgG1, kappa, N297A, V domains shown)
VH: B10 VH with N76S
VL: B10 VL
notes: also called antibody Ab20

Kd: 1280 pM | koff: 9.92e-05 s⁻¹ | kon: 77500 M⁻¹ s⁻¹
B14: Ab16 (antibody, human IgG1, kappa, N297A, V domains shown)
VH: B13 VH with E5V, D10G, K13Q, N32D, T58S, S62N, T79G, Q81K, L82M, N83T
VL: B13 VL with V13A, A31S, Y52S, K63S, Q70E, N97V
notes: also called antibody Ab16

Kd: 3700 pM | koff: 0.000362 s⁻¹ | kon: 97900 M⁻¹ s⁻¹
B16: Ab14 (antibody, human IgG1, kappa, N297A, V domains shown)
VH: QEQLEESGGDLVKPEGSLTLTCTGSGFSFSSIAYMCWIRQAPGKGLEWIGCIGSGSGNTYYANWAKGRFTISKSSSTTVTLQMTSLTAADTATYFCASDTNNGWLGQFNLWGQGTLVTVSS
VL: B13 VL with E12S, V13A, K22N, A31S, Y52S, S90G
notes: also called antibody Ab14

Kd: 609 pM | koff: 6.27e-05 s⁻¹ | kon: 103000 M⁻¹ s⁻¹
B17: Ab17 (antibody, human IgG1, kappa, N297A, V domains shown)
VH: QEQLEESGGDLVKPEGSLTLTCTASGFSFSSSYWICWVRQAPGKGLEWIGCIRPGSADYYASWAKGRFTISRASSSTVTLQMTSLTAADTATYFCASDINDGWLGQFNLWGPGTLVTVSS
VL: B13 VL with I2V, V13A, Q27L, S30A, A31D, Q37L, Y52S, Q70E, F71Y
notes: also called antibody Ab17

— US20130302399A1 (ALDERBIO, published 2013)
